Data taken from the supplement of paper PMC10567573.

B1: WDR41 (parent)
chain: WTMQAYERNFWDPSPQLDTQQEIK
B2: GOLPH3 (parent)
chain: FAPLLDEQYDLATKRVRQLLDLDP

Variants of: B1
Assay: protein stability index of a GFP-peptide fusion (GPS, HEK-293T) (PSI 1-6); higher = more stable
Details: c terminus: a fixed tail appended
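Note: lentivirally expressed fusions sorted by FACS into six bins by GFP to DsRed ratio, PSI derived from sequencing read proportions per bin multiplied by bin number.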

| Variant | protein stability index |
| --- | --- |
| WTMQAYERNFWDPSPQLDTHQEIK [Q20H] | 2.86 |
| WTMQAYERNFWDPSPQLDTGQEIK [Q20G] | 2.19 |
| WTMQAYERNFWDPSPQLDTFQEIK [Q20F] | 1.99 |
| WTMQAYERNFWDPSPQLDTCQEIK [Q20C] | 2.75 |
| WTMQAYERNFWDPSPQLDTDQEIK [Q20D] | 3.42 |
| WTMQAYERNFWDPSPQLDTKQEIK [Q20K] | 2.28 |
| WTMQAYETNFWDPSPQLDTQQEIK [R8T] | 2.95 |
| WTMQAYEFNFWDPSPQLDTQQEIK [R8F] | 2.54 |
| WTMQAYELNFWDPSPQLDTQQEIK [R8L] | 2.42 |
| WTMQAYEYNFWDPSPQLDTQQEIK [R8Y] | 2.52 |
| WTMQAYECNFWDPSPQLDTQQEIK [R8C] | 2.59 |
| WTMQAYEWNFWDPSPQLDTQQEIK [R8W] | 2.4 |
| WTMQAYEDNFWDPSPQLDTQQEIK [R8D] | 3.9 |
| WTMQAYERNFWDPSYQLDTQQEIK [P15Y] | 1.81 |
| WTMQAYERNFWDPSDQLDTQQEIK [P15D] | 3.03 |
| WTMQAYERNFWDPSMQLDTQQEIK [P15M] | 2.7 |
| WTMQAYERNFWDPSAQLDTQQEIK [P15A] | 2.82 |
| WTMQAYERNFWDPSVQLDTQQEIK [P15V] | 2.19 |
| WTMQAYERNFWDPSWQLDTQQEIK [P15W] | 1.75 |
| WTMQAYERNFWDPSSQLDTQQEIK [P15S] | 2.02 |
| WTMQAYERNFWDSSPQLDTQQEIK [P13S] | 3.46 |
| WTMQAYERNFWDGSPQLDTQQEIK [P13G] | 2.1 |
| WTMQAYERNFWDMSPQLDTQQEIK [P13M] | 2.34 |
| WTMQAYERNFWDPSPQLDTQQEKK [I23K] | 3.93 |
| WTMQAYERNFWDPSPQLDTQQEAK [I23A] | 2.99 |
| WTMQAYERNFWDPSPQLDTQQERK [I23R] | 2.91 |
| WTMQAYERNFWDPSPQLDTQQETK [I23T] | 2.83 |
| WTMQAYERNFWDPSPQLDTQQEGK [I23G] | 3.05 |
| WTMQAYERNFWDPSPQLDTQQEDK [I23D] | 3.61 |
| WTMQAYERNFWDPSPQLDTQQENK [I23N] | 3.24 |

Variants of: B2
Assay: as above
Details: c terminus: a fixed tail appended

| Variant | protein stability index |
| --- | --- |
| FAPLLDEQYDLATKRVRQLLDLDV [P24V] | 2.7 |
| FAPLLDEQYDLATKRVRQLLDLDI [P24I] | 1.38 |
| FAPLLDEQYDLATKRVRQLLDLDC [P24C] | 2.36 |
| FAPLLDEQYDLATKRVRQLLDLDF [P24F] | 3.43 |
| FAPLLDEQYDLATKRVRQLLDLDA [P24A] | 1.81 |
| FAPLLDEQYDLATKRVRQLLDLDW [P24W] | 1.29 |
| FAPLLDEQYDLATKRVRQLLDLDY [P24Y] | 1.45 |
| FAPLLDEQYDLATKRVRQLLDLDL [P24L] | 2.11 |
| FAPLLDEQYDLATKRVRQLLDLDG [P24G] | 2.28 |
| FAPLLDEQYDLATKRVRQLLDLDM [P24M] | 2 |
| FAPLLDEQYDLATKRVRQLLDLDR [P24R] | 2.28 |
| FAPLLDEQYDLATKRVRQLLDLDE [P24E] | 2.46 |
| FAPLLDEQYDLATKRVRQLLDLDT [P24T] | 2.3 |
| FAPLLDEQYDLATKRVRQLLDLDQ [P24Q] | 2.33 |
| FAPLLDEQYDLATKRVRQLLDLDD [P24D] | 1.87 |
| FAPLLDEQYDLATKRVRQLLDLDN [P24N] | 2.46 |
| FAPLLDEQYDLATKRVRQLLDLDH [P24H] | 3.6 |
| FAPLLDEQYDLATKRVRQLLDLDS [P24S] | 1.48 |
| FAPLLDEQYDLATKRVRQLLDGDP [L22G] | 2.58 |
| FAPLLDEQYDLATKRVRQLLDCDP [L22C] | 1.95 |
| FAPLLDEQYDLATKRVRQLLDMDP [L22M] | 2.58 |
| FAPLLDEQYDLATKRVRQLLDHDP [L22H] | 2.55 |

| Variant | protein stability index |
| --- | --- |
| FAPLLDEQYDLATKRVRQLLDTDP [L22T] | 2.21 |
| FAPLLDEQYDLATKRVRQLLDFDP [L22F] | 2.61 |
| FAPLLDEQYDLATKRVRQLLDPDP [L22P] | 2.06 |
| FAPLLDEQYDLATKRVRQLLDSDP [L22S] | 2.29 |
| FAPLLDEQYDLATKRVRQLLDRDP [L22R] | 2.26 |
| FAPLLDEQYDLATKRVRQLLDVDP [L22V] | 2.2 |
| FAPLLDEQYDLATKRVRQLLDYDP [L22Y] | 2.29 |
| FAPLLDEQYDLATKRVRQLLDADP [L22A] | 3.04 |
| FAPLLDEQYDLATKRVRQLLDKDP [L22K] | 2.27 |
| FAPLLDEQYDLATKRVRQLLDNDP [L22N] | 2.46 |
| FAPLLDEQYDLATKRVRQLLDEDP [L22E] | 3.16 |
| FAPLLDEQYDLATKRVRQLLDIDP [L22I] | 2.45 |
| FAPLLDEQYDLATKRVRQLLDWDP [L22W] | 1.83 |
| FAPLLDEQYDLATKRVRQLLDDDP [L22D] | 2.75 |
| FAPLLDEQYDLATKRVRQLLDQDP [L22Q] | 2.5 |
| FAPLLDEQYDLATKRVRQLLSLDP [D21S] | 1.95 |
| FAPLLDEQYDLATKRVRQLLYLDP [D21Y] | 1.88 |
| FAPLLDEQYDLATKRVRQLLVLDP [D21V] | 2.79 |
| FAPLLDEQYDLATKRVRQLLWLDP [D21W] | 2.22 |
| FAPLLDEQYDLATKRVRQLLNLDP [D21N] | 2.12 |
| FAPLLDEQYDLATKRVRQLLPLDP [D21P] | 1.48 |
| FAPLLDEQYDLATKRVRQLLTLDP [D21T] | 1.9 |

| Variant | protein stability index |
| --- | --- |
| FAPLLDEQYDLATKRVRQLLQLDP [D21Q] | 2.1 |
| FAPLLDEQYDLATKRVRQLLRLDP [D21R] | 1.55 |
| FAPLLDEQYDLATKRVRQLLDLLP [D23L] | 2.01 |
| FAPLLDEQYDLATKRVRQLLDLTP [D23T] | 1.94 |
| FAPLLDEQYDLATKRVRQLLDLMP [D23M] | 1.53 |
| FAPLLDEQYDLATKRVRQLLDLEP [D23E] | 1.87 |
| FAPLLDEQYDLATKRVRQLLDLHP [D23H] | 1.69 |
| FAPLLDEQYDLATKRVRQLLDLAP [D23A] | 2.07 |
| FAPLLDEQYDLATKRVRQLLDLGP [D23G] | 2.65 |
| FAPLLDEQYDLATKRVRQLLDLSP [D23S] | 1.85 |
| FAPLLDEQYDLATKRVRQLLDLWP [D23W] | 3.32 |
| FAPLLDEQYDLATKRVRQLLDLPP [D23P] | 1.8 |
| FAPLLDEQYDLATKRVRQLLDLRP [D23R] | 2.72 |
| FAPLLDEQYDLATKRVRQLLDLVP [D23V] | 1.6 |
| FAPLLDEQYDLATKRVRQLLDLKP [D23K] | 1.78 |
| FAPLLDEQYDLATKRVRQLLDLNP [D23N] | 2.85 |
| FAPLLDEQYDLATKRVRQLLDLIP [D23I] | 1.62 |
| FAPLLDEQYDLATKRVRQLLDLCP [D23C] | 2.41 |
| FAPLLDEQYDLATKRVRQLLDLQP [D23Q] | 2.11 |
| FAPLLDEQYDLATKRVRQLLDLYP [D23Y] | 2.12 |
